These results are taken from paper PMC8965161, “Suppression of ATG4B by copper inhibits autophagy and involves in Mallory body formation” (Redox Biology, 2022).

One series addresses ATG4B^C0-GFP (UniProt Q9Y4P1). In words: differential detergent fractionation and western blot under non-reduced condition, oligomer band quantified (self-oligomer formation in cells). On the set-up: reference not given here. As to conditions: HEK-293T cells, read off a plot. In general terms: A western blot detects proteins with antibodies after separation by electrophoresis.
Series [1] concerns the molecule itself. Put plainly: non-reduced SDS-PAGE with Coomassie staining; ATG4B protein (4 ug) treated with designed concentrations of copper ions at 4 C for 30 min, stopped with 10 mM NEM; non-reduced condition.

In the case of “ATG4B-GFP (from UniProt Q9Y4P1) C0 (all 14 cysteines to serines)”, the response in the series with ATG4B^C0-GFP (Insoluble fraction, 1 mM copper ions (CuCl2) for 6 h) was found to be 0.55; with ATG4B^C0-GFP (Insoluble fraction, no CuCl2), 0.39; with ATG4B^C0-GFP (Soluble fraction, 1 mM copper ions (CuCl2) for 6 h), 0.15; in the series with ATG4B^C0-GFP (Soluble fraction, no CuCl2), 0.068.

B1: recombinant ATG4B protein without His-Tag (enzyme, human, UniProt Q9Y4P1 1-393, looked up)
chain: MDAATLTYDTLRFAEFEDFPETSEPVWILGRKYSIFTEKDEILSDVASRLWFTYRKNFPAIGGTGPTSDTGWGCMLRCGQMIFAQALVCRHLGRDWRWTQRKRQPDSYFSVLNAFIDRKDSYYSIHQIAQMGVGEGKSIGQWYGPNTVAQVLKKLAVFDTWSSLAVHIAMDNTVVMEEIRRLCRTSVPCAGATAFPADSDRHCNGFPAGAEVTNRPSPWRPLVLLIPLRLGLTDINEAYVETLKHCFMMPQSLGVIGGKPNSAHYFIGYVGEELIYLDPHTTQPAVEPTDGCFIPDESFHCQHPPCRMSIAELDPSIAVGFFCKTEDDFNDWCQQVKKLSLLGGALPMFELVELQPSHLACPDVLNLSLDSSDVERLERFFDSEDEDFEILSL
notes: ATG4B, cysteine protease, human; source: recombinant, purified, without His-Tag
For B1, the binding result in series [1] was “binds”.
